In PMC2756588:

T1: Hse1, P38753
T1 sequence (P38753 208-285, looked up): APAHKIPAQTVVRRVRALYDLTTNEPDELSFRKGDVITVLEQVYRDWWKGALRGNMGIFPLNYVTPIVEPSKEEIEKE

T2: Boi2, P39969
T2 sequence (P39969 32-116, looked up): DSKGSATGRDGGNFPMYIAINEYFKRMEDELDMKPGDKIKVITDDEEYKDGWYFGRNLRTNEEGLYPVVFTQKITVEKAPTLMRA

T3: Hof1, Q05080
T3 sequence (Q05080 590-669, looked up): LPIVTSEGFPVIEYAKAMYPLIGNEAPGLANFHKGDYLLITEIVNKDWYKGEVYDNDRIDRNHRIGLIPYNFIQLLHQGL

T4: Bud14, P27637
T4 sequence (P27637 247-328, looked up): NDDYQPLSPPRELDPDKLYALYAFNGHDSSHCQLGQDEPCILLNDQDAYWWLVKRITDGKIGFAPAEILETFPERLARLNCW

T5: Sla1-3, P32790
T5 sequence (P32790 344-424, looked up): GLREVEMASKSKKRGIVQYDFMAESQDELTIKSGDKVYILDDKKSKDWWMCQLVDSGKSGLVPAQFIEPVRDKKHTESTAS

T6: Lsb3, P43603
T6 sequence (P43603 385-451, looked up): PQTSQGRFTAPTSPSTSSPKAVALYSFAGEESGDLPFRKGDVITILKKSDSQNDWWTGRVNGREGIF

T7: Abp1, P15891
T7 sequence (P15891 535-592, looked up): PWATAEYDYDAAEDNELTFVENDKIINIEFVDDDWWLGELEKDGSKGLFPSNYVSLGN

T8: Bzz1-1, P38822
T8 sequence (P38822 478-572, looked up): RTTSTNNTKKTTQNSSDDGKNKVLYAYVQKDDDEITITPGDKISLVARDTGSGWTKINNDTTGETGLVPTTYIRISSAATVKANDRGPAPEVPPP

T9: Pex13, P80667
T9 sequence (P80667 295-386, looked up): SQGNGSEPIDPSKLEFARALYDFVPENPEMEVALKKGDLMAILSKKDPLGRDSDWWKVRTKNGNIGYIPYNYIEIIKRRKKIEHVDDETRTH

T10: Cyk3, Q07533
T10 sequence (Q07533 1-83, looked up): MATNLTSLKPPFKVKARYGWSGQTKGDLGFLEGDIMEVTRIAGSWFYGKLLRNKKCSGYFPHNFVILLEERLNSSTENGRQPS

T11: Fus1, P11710
T11 sequence (P11710 432-512, looked up): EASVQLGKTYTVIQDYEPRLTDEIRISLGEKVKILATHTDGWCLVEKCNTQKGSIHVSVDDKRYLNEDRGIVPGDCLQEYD

T12: Pin3, Q06449
T12 sequence (Q06449 53-122, looked up): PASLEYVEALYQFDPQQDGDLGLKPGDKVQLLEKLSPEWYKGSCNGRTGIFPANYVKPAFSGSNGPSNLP

T13: Lsb4, P32793
T13 sequence (P32793 402-468, looked up): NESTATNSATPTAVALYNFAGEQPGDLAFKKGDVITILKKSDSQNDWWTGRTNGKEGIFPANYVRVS

T14: Sla1-2, P32790
T14 sequence (P32790 60-140, looked up): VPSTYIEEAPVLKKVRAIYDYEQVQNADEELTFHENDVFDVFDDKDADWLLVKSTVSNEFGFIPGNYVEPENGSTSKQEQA

T15: Lsb1, P53281
T15 sequence (P53281 45-122, looked up): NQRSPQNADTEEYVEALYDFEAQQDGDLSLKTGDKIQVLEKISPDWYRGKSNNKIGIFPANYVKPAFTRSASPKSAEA

T16: Myo5, Q04439
T16 sequence (Q04439 1072-1160, looked up): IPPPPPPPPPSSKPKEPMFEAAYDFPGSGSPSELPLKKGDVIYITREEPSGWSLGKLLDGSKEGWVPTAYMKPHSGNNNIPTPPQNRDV

T17: Bzz1-2, P38822
T17 sequence (P38822 568-633, looked up): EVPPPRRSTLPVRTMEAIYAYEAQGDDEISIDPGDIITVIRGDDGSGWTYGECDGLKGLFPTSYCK

T18: Bbc1, P47068
T18 sequence (P47068 1-78, looked up): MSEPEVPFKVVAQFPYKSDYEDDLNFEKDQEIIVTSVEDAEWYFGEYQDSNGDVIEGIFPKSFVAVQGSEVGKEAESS

T19: Cdc25, P04821
T19 sequence (P04821 50-136, looked up): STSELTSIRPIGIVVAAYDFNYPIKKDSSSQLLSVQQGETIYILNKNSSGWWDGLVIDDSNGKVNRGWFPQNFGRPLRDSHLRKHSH

T20: Nbp2, Q12163
T20 sequence (Q12163 103-180, looked up): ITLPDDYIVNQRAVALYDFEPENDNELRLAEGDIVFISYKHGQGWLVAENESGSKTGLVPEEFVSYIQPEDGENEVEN

T21: Boi1, P38041
T21 sequence (P38041 1-86, looked up): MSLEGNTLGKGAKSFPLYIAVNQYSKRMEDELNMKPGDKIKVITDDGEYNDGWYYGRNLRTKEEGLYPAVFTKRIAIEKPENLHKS


molecular target: T1, Hse1, P38753; assay: SPOT array; settings: median of control spots 1727

Row | Binder | SPOT intensity
1 | NPTKSPPPPPSPSTM | 0
2 | PPIPNAPLSPAPAVP | 0
3 | APPLPPTAPPPPSLP | 12

molecular target: T2, Boi2, P39969; assay: SPOT array; settings: median of control spots 1161

Row | Binder | SPOT intensity
4 | NPTKSPPPPPSPSTM | 0
5 | PPIPNAPLSPAPAVP | 0
6 | APPLPPTAPPPPSLP | 0

molecular target: T3, Hof1, Q05080; assay: SPOT array; settings: median of control spots 4086

Row | Binder | SPOT intensity
7 | NPTKSPPPPPSPSTM | 0
8 | PPIPNAPLSPAPAVP | 0
9 | APPLPPTAPPPPSLP | 51

molecular target: T4, Bud14, P27637; assay: SPOT array; settings: median of control spots 956

Row | Binder | SPOT intensity
10 | NPTKSPPPPPSPSTM | 2
11 | PPIPNAPLSPAPAVP | 2
12 | APPLPPTAPPPPSLP | 0

molecular target: T5, Sla1-3, P32790; assay: SPOT array; settings: median of control spots 5475

Row | Binder | SPOT intensity
13 | NPTKSPPPPPSPSTM | 1
14 | PPIPNAPLSPAPAVP | 0
15 | APPLPPTAPPPPSLP | 3

molecular target: T6, Lsb3, P43603; assay: SPOT array; settings: median of control spots 406

Row | Binder | SPOT intensity
16 | NPTKSPPPPPSPSTM | 0
17 | PPIPNAPLSPAPAVP | 0
18 | APPLPPTAPPPPSLP | 0

molecular target: T7, Abp1, P15891; assay: SPOT array; settings: median of control spots 935

Row | Binder | SPOT intensity
19 | NPTKSPPPPPSPSTM | 28
20 | PPIPNAPLSPAPAVP | 0
21 | APPLPPTAPPPPSLP | 0

molecular target: T8, Bzz1-1, P38822; assay: SPOT array; settings: median of control spots 4446

Row | Binder | SPOT intensity
22 | NPTKSPPPPPSPSTM | 124
23 | PPIPNAPLSPAPAVP | 0
24 | APPLPPTAPPPPSLP | 0

molecular target: Myo3, P36006; assay: SPOT array; settings: median of control spots 468

Row | Binder | SPOT intensity
25 | NPTKSPPPPPSPSTM | 436
26 | PPIPNAPLSPAPAVP | 483
27 | APPLPPTAPPPPSLP | 537

molecular target: T9, Pex13, P80667; assay: SPOT array; settings: median of control spots 1341

Row | Binder | SPOT intensity
28 | NPTKSPPPPPSPSTM | 43
29 | PPIPNAPLSPAPAVP | 1
30 | APPLPPTAPPPPSLP | 4

molecular target: T10, Cyk3, Q07533; assay: SPOT array; settings: median of control spots 1451

Row | Binder | SPOT intensity
31 | NPTKSPPPPPSPSTM | 1
32 | PPIPNAPLSPAPAVP | 0
33 | APPLPPTAPPPPSLP | 0

molecular target: T11, Fus1, P11710; assay: SPOT array; settings: median of control spots 1200

Row | Binder | SPOT intensity
34 | NPTKSPPPPPSPSTM | 1
35 | PPIPNAPLSPAPAVP | 0
36 | APPLPPTAPPPPSLP | 0

molecular target: GST; assay: SPOT array; settings: median of control spots 978

Row | Binder | SPOT intensity
37 | NPTKSPPPPPSPSTM | 1
38 | PPIPNAPLSPAPAVP | 0
39 | APPLPPTAPPPPSLP | 1

molecular target: T12, Pin3, Q06449; assay: SPOT array; settings: median of control spots 2171

Row | Binder | SPOT intensity
40 | NPTKSPPPPPSPSTM | 109
41 | PPIPNAPLSPAPAVP | 0
42 | APPLPPTAPPPPSLP | 0

molecular target: Sho1, P40073; assay: SPOT array; settings: median of control spots 1148
Sequence (P40073 287-367): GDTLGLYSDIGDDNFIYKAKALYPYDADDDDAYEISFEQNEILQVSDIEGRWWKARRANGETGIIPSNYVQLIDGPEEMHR

Row | Binder | SPOT intensity
43 | NPTKSPPPPPSPSTM | 2
44 | PPIPNAPLSPAPAVP | 0
45 | APPLPPTAPPPPSLP | 0

molecular target: T13, Lsb4, P32793; assay: SPOT array; settings: median of control spots 397

Row | Binder | SPOT intensity
46 | NPTKSPPPPPSPSTM | 4
47 | PPIPNAPLSPAPAVP | 0
48 | APPLPPTAPPPPSLP | 0

molecular target: Bem1-2, P29366; assay: SPOT array; settings: median of control spots 4347
Sequence (P29366 139-227): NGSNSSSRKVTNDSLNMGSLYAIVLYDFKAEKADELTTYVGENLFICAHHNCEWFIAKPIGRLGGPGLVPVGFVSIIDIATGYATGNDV

Row | Binder | SPOT intensity
49 | NPTKSPPPPPSPSTM | 0
50 | PPIPNAPLSPAPAVP | 0
51 | APPLPPTAPPPPSLP | 89

molecular target: T14, Sla1-2, P32790; assay: SPOT array; settings: median of control spots 712

Row | Binder | SPOT intensity
52 | NPTKSPPPPPSPSTM | 0
53 | PPIPNAPLSPAPAVP | 0
54 | APPLPPTAPPPPSLP | 0

molecular target: Bem1-1, P29366; assay: SPOT array; settings: median of control spots 4282
Sequence (P29366 55-141): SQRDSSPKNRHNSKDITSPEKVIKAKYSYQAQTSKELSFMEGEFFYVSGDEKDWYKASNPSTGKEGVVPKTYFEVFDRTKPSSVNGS

Row | Binder | SPOT intensity
55 | NPTKSPPPPPSPSTM | 1
56 | PPIPNAPLSPAPAVP | 0
57 | APPLPPTAPPPPSLP | 0

molecular target: T15, Lsb1, P53281; assay: SPOT array; settings: median of control spots 388

Row | Binder | SPOT intensity
58 | NPTKSPPPPPSPSTM | 0
59 | PPIPNAPLSPAPAVP | 0
60 | APPLPPTAPPPPSLP | 0

molecular target: T16, Myo5, Q04439; assay: SPOT array; settings: median of control spots 471

Row | Binder | SPOT intensity
61 | NPTKSPPPPPSPSTM | 223
62 | PPIPNAPLSPAPAVP | 443
63 | APPLPPTAPPPPSLP | 559

molecular target: T17, Bzz1-2, P38822; assay: SPOT array; settings: median of control spots 4538

Row | Binder | SPOT intensity
64 | NPTKSPPPPPSPSTM | 253
65 | PPIPNAPLSPAPAVP | 1
66 | APPLPPTAPPPPSLP | 0

molecular target: Rvs167, P39743; assay: SPOT array; settings: median of control spots 2707
Sequence (P39743 419-482): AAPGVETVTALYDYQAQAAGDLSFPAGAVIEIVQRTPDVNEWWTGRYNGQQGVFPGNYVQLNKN

Row | Binder | SPOT intensity
67 | NPTKSPPPPPSPSTM | 0
68 | PPIPNAPLSPAPAVP | 0
69 | APPLPPTAPPPPSLP | 0

molecular target: T18, Bbc1, P47068; assay: SPOT array; settings: median of control spots 796

Row | Binder | SPOT intensity
70 | NPTKSPPPPPSPSTM | 0
71 | PPIPNAPLSPAPAVP | 0
72 | APPLPPTAPPPPSLP | 0

molecular target: T19, Cdc25, P04821; assay: SPOT array; settings: median of control spots 969

Row | Binder | SPOT intensity
73 | NPTKSPPPPPSPSTM | 3
74 | PPIPNAPLSPAPAVP | 2
75 | APPLPPTAPPPPSLP | 2

molecular target: T20, Nbp2, Q12163; assay: SPOT array; settings: median of control spots 357

Row | Binder | SPOT intensity
76 | NPTKSPPPPPSPSTM | 0
77 | PPIPNAPLSPAPAVP | 0
78 | APPLPPTAPPPPSLP | 0

molecular target: T21, Boi1, P38041; assay: SPOT array; settings: median of control spots 1162

Row | Binder | SPOT intensity
79 | NPTKSPPPPPSPSTM | 0
80 | PPIPNAPLSPAPAVP | 0
81 | APPLPPTAPPPPSLP | 0
